Measurements reported in US20230067770A1 (SHANGHAI HENLIUS BIOTECH, published 2023).
One block for each binder: values may come before it.

How the values were obtained:
[1] = target: T1, human CD137-Fc fusion protein (human, UniProt Q07011 24-186, limits assumed); assay: ELISA, hybridoma supernatant on plates coated with human CD137-Fc fusion protein
T1 construct: also called huCD137
Protocol: Hybridoma screening. Detection of binding to huCD137 by ELISA: To identify hybridomas secreting anti-human CD137 antibodies, ELISA plates (Corning) were coated with human CD137-Fc fusion protein at 1 μg/ml in PBS overnight at 4° C. […] Thirty microliters of supernatants diluted 1:3 in PBS were added to the plates and incubated for 1-2 hour at ambient temperature. Afterwards, the plates were washed as before, and binding of antibodies was detected through Horseradish peroxidase (HRP)-conjugated goat F(ab′)2 anti-human IgG. The plates were developed with TMB and read at 450 nm.

[2] = target: T2, human-CD137 (ELISA antigen of the affinity maturation screen) (human, UniProt Q07011 24-186, limits assumed); assay: ELISA of Fab in supernatants after phage panning
T2 construct: also called human-CD137 ECD

Human CD137-his [3] = target: T3, Human CD137-his (human, UniProt Q07011 24-186); assay: BLI (Octet), second round, antibody captured on AHC sensor
T3 construct: Bought reagent; also called Human CD137-His (Sino Biological, 10041-H08H)
Protocol: (§1) Biolayer interferometry was used to measure the association and dissociation constants for the binding kinetics of the anti-CD137 antibodies. The binding kinetics was measured on a FortieBio Octet Red 96 at 30° C. and analyzed with the FortieBio Data Analysis 9.0 software. Anti-human-IgG Fc (AHC) sensor was used to capture the anti-CD137 antibodies or control antibodies. A kinetic buffer only well was set as a reference well for subtraction during data processing. Data were fitted with a 1:1 Langmuir model for association and dissociation using Rmax linked global fitting for each antibody-antigen binding. Human CD137-his is a recombinant CD137 antigen with a poly histidine tag fused to C-terminus of human CD137 antigen (Sino Biological, 10041-H08H). Cyno CD137-his is a recombinant CD137 antigen with a poly histidine tag fused to C-terminus of cynomolgus CD137 antigen (Sino Biological, 90847-K02H-100).

Human CD137-his [4] = target: T3, Human CD137-his; assay: BLI (Octet), third comparison, antibody captured on AHC sensor
Protocol: as §1

binding result [2]: binds
B9: Clone 2-11 (Fab in supernatant) (Fab, V domains shown)
VH: QVQLVQSGAEVKKPGASVKVSCKASGFNIKDTYIHWVRQAPGQGLEWMGKIDPANGGTEYAQKFQGRVTMTRDTSTSTVYMELSSLRSEDTAVYYCTTGNLHYALMDYWGQGTSVTVSS
VL: DIQMTQSPSSVSASVGDRVTITCKASQPINTYLSWYQQKPGKAPKLLIYRVNRKVDGVPSRFSGSGSGTDFTLTISSLQPEDFATYYCLQYVDFPYTFGGGTKLEIKR
notes: Screened as Fab in supernatant

binding result [2]: binds
B10: Clone 5 (Fab in supernatant) (Fab, V domains shown)
VH: QVQLVQSGAEVKKPGASVKVSCKASGFNIRDTYIHWVRQAPGQGLEWMGKIDPANGNTEYAQKFQGRVTMTRDTSTSTVYMELSSLRSEDTAVYYCTTGNLHYGLMDYWGQGTSVTVSS
VL: DIQMTQSPSSVSASVGDRVTITCKASQAINTYHSWYQQKPGKAPKLLIYRVNRMVDGVPSRFSGSGSGTDFTLTISSLQPEDFATYYCLQYLDFPYTFGGGTKLEIKR
notes: as for B9

binding result [2]: binds
B11: Clone 9 (Fab in supernatant) (Fab, V domains shown)
VH: QVQLVQSGAEVKKPGASVKVSCKASGFNLKDTYIHWVRQAPGQGLEWMGKIDPANGNTEYAQKFQGRVTMTRDTSTSTVYMELSSLRSEDTAVYYCTTGNLHYALMDYWGQGTSVTVSS
VL: DIQMTQSPSSVSASVGDRVTITCKASQAIATYLSWYQQKPGKAPKLLIYRANRMYDGVPSRFSGSGSGTDFTLTISSLQPEDFATYYCLQFDDFPYTFGGGTKLEIKR
notes: as for B9

binding result [2]: binds
B12: Clone 33 (Fab in supernatant) (Fab, V domains shown)
VH: QVQLVQSGAEVKKPGASVKVSCKASGFNIKDTYIQWVRQAPGQGLEWMGKIDPANGNTMYAQKFQGRVTMTRDTSTSTVYMELSSLRSEDTAVYYCTTGNLHYALMDYWGQGTSVTVSS
VL: DIQMTQSPSSVSASVGDRVTITCKASQTINTYLSWYQQKPGKAPKLLIYRANRMPDGVPSRFSGSGSGTDFTLTISSLQPEDFATYYCLQYDDFPYTFGGGTKLEIKR
notes: as for B9

binding result [1]: binds
B13: hybridoma anti-CD137 antibody clone 6.62 (antibody, V domains shown)
VH: QIQLVQSGPELKKPGETVKISCKASGYSFTDYSIHWVKQAPGKGLKWMGWMNTETGEPAYADDFKGRFAFSLETAASTAYLQINHLRDEDTATYFCTRSSYGYFDYWGQGTTLTVSS
VL: DVVMTQTPLSLPVSLGDQAAISCRSSQTLEHINGNTYLEWYLQKPGQSPKLLIYKVSDRFSGVPDRFSGSGSGTGFTLKISRVEAEDLGVYYCFQGSHFPLTFGGGTKLELK
notes: Tested as hybridoma supernatant

binding result [1]: binds
B14: hybridoma anti-CD137 antibody clone 29.39 (antibody, V domains shown)
VH: EVKLMESGAELVKPGASVKLSCTASGFNIKDTYIHWVKQRPEQGLEWIGKIDPANGNTEYDLNFQGRATITADTSSNTAYLQLSSLTSEDTAVYYCTTGNLHYYLMDYWGQGTSVTSLE
VL: DIVMTQSPSSMYASLGERVTITCKASQAINTYLSWFQQKPGKSPKTLIYRANRMVDGVPSRFSGSGSGQDYSLTISSLDYEDMGIYYCLQYDDFPYTFGGGTKLEIKR
notes: as for B13

binding result [1]: binds
B15: hybridoma anti-CD137 antibody clone 30.19 (antibody, V domains shown)
VH: QIQLVQSGPELKKPGETVKISCKASGYSFTDYSIHWVKQAPGKGLKWMGWMNTETGEPAYADDFKGRFAFSLETAASTAYLQINHLRDEDTATYFCTRSSYGYFDYWGQGTTLTVSS
VL: DIVMTQSPSSMYASLGERVTITCKASQAINTYLSWFQQKPGKSPKTLIYRANRMVDGVPSRFSGSGSGQDYSLTISSLDYEDMGIYYCLQYDDFPYTFGGGTKLEIKR
notes: as for B13

binding result [1]: binds
B16: hybridoma anti-CD137 antibody clone 44.21 (antibody, V domains shown)
VH: EVKLMESGAELVKPGASVKLSCTASGFNIKDTYIHWVKQRPEQGLEWIGKIDPANGNTEYDLNFQGRATITADTSSNTAYLQLSSLTSEDTAVYYCTTGNLHYYLMDYWGQGTSVTSLE
VL: DIVMTQTPLSLPVSLGDHASISCRSSQSLVHSNGNTYLHWFLQKPGQSPKLLIYKVSNRFSGVPDRFSGSGSGTDFTLKISRVEAEDLGVYFCSQNAHVPWTFGGGTKRKSNE
notes: as for B13

Further lines, the binder ahead of its results:

B1: hybridoma anti-CD137 antibody clone 3.10 (antibody, V domains shown)
VH: EVQLVESGPGLVAPSQSLSITCTVSGFSLTTYDVSWIRQPPGKGLEWLGVIWTGGGTNYNSTFMSRLTISKDNSKNQVFLKMNSLQTDDTATYYCVRVDYWGQGTTLTVSR
VL: DVVMTQTPLSLPVSLGGHASISCRSSQSLVHNNGNTYLHWFLQKPGQSPKLLIYKVSNRFSGVPDRFSGSGSGTDFTLKISRVEAEDLGVYFCSQNAHVPWTFGGGTKLEIKR
notes: as for B13
binding result [1]: binds

B2: Clone 23 (Fab in supernatant) (Fab, V domains shown)
VH: QVQLVQSGAEVKKPGASVKVSCKASGFNIKDTYIHWVRQAPGQGLEWMGKIDPANGQTEYAQKFQGRVTMTRDTSTSTVYMELSSLRSEDTAVYYCTTGNLHYALMDYWGQGTSVTVSS
VL: DIQMTQSPSSVSASVGDRVTITCKASQAINTYLSWYQQKPGKAPKLLIYRANRMVGGVPSRFSGSGSGTDFTLTISSLQPEDFATYYCLQYRDFPYTFGGGTKLEIKR
notes: as for B9
binding result [2]: binds

B3: Clone 18 (Fab in supernatant) (Fab, V domains shown)
VH: QVQLVQSGAEVKKPGASVKVSCQASGFNIKDTYIHWVRQAPGQGLGWMGKIDPANGMTEYAQKFQGRVTVTRDTSTSTVYMELSSLRSEDTAVYYCTTGNLHYALMDYWGQGTSVTVSS
VL: DIQMTQSPSSVSASVGDRVTITCKASQAPNTYLSWYQQKPGKAPKLLIYRANRMVDGVPSRFSGSGSGTDFTLTISSLQPEDFATYYCLQYEDFPYTFGGGTKLEIKR
notes: as for B9
binding result [2]: binds

B4: Clone 3 (Fab in supernatant) (Fab, V domains shown)
VH: QVQLVQSGAEVKKPGASVKVSCKASGFNPKDTYIHWVRQAPGQGLEWMGRIDPANGFTEYAQKFQGRVTMTRDTSTSTVYMELSSLRSEDTAVYYCTTGNLHYALMDYWGQGTSVTVSS
VL: DIQMTQSPSSVSASVGDRVTITCKASQAINTYLSWYQQKPGKAPKLLIYRANRMVDGVPSRFSGSGSGTDFTLTISSLQHEDFATYYCLQSDDFPYTFGGGTKLEIKR
notes: Screened as Fab in SS320 culture supernatant
binding result [2]: binds

B5: Clone 19 (Fab in supernatant) (Fab, V domains shown)
VH: QVQLVQSGAEVKKPGASVKVSCKASGFNMKDTYIHWVRQAPGQGLEWMGKIDPANGATEYAQKFQGRVTMTRDTSTSTVYMELSSLRSEDTAVYYCTTGNLHYGLMDYWGQGTSVTVSS
VL: DIQMTQSPSSVSASVGDRVTITCKASQAINTYLSWYQQKPGKAPKLLIYRANRMGDGVPSRFSGSGSGTDFTLTISSLQPEDFATYYCLQSDDFPYTFGGGTKLEIKR
notes: as for B9
binding result [2]: binds

B6: Clone 25 (Fab in supernatant) (Fab, V domains shown)
VH: QVQLVQSGAEVKKPGASVKVSCKASGFNIQDTYIHWVRQAPGQGLEWMGRIDPANGNSEYAQKFQGRVTMTRDTSTSTVYMELSSLRSEDTAVYYCTTGNLHYGLMDYWGQGTSVTVSS
VL: DIQMTQSPSSVSASVGDRVTITCKASQAINTYLSWYQQKPGKAPKLLIYRDNRKVDGVPSRFSGSGSGTDFTLTISSLQPEDFATYYCLQYQDFPYKFGGGTKLEIKR
notes: as for B9
binding result [2]: binds

B7: Clone 35 (Fab in supernatant) (Fab, V domains shown)
VH: QVQLVQSGAEVKKPGASVKVSCKASGFNINDTYIHWVRQAPGQGLEWMGRIDPANGYTEYAQKFQGRVTMTRDTSTSTVYMELSSLRSEDTAVYYCTTGNLHYALMDYWGQGTSVTVSS
VL: DIQMTQSPSSVSASVGDRVTITCKASQAIATYLSWYQQKPGKAPKLLIYRANRMVDGVPSRFSGSGSGTDFTLTISSLQPEDFATYYCLQFQDFPYTFGGGTKLEIKR
notes: as for B9
binding result [2]: binds

B8: Clone 20 (Fab in supernatant) (Fab, V domains shown)
VH: QVQLVQSGAEVKKPGASVKVSCKASGFNMKDTYIHWVRQAPGQGLEWMGKIDPANGDTEYAQKFQGRVTMTRDTSTSTVYMELSSLRSEDTAVYYCTTGNLHYALMDYWGQGTSVTVSS
VL: DIQMTQSPSSVSASVGDRVTITCKASQAINTYLSWYQQKPGKAPKLLIYRANRAVDGVPSRFSGSGSGTDFTLTISSLQPEDFATYYCLQYLDFPYTFGGGTKLEIKR
notes: as for B9
binding result [2]: binds

B17: 2-9-1 IgG1 SELF (antibody)
heavy: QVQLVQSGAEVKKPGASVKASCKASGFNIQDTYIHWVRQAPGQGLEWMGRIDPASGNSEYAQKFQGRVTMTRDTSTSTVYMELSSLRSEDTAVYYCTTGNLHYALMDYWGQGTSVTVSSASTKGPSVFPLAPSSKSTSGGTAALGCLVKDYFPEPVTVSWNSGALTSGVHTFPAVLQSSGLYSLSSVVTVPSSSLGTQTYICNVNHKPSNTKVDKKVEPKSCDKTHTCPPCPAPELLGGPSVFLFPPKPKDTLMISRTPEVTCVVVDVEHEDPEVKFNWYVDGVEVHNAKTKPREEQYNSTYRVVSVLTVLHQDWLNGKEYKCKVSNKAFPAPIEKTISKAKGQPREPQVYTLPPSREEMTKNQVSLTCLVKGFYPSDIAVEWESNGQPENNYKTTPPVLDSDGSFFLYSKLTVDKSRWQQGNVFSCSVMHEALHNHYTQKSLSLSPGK
light: DIQMTQSPSSVSASVGDRVTITCKASQPINTYLSWYQQKPGKAPKLLIYRVNRKVDGVPSRFSGSGSGTDFTLTISSLQPEDFATYYCLQYLDFPYTFGGGTKLEIKRTVAAPSVFIFPPSDEQLKSGTASVVCLLNNFYPREAKVQWKVDNALQSGNSQESVTEQDSKDSTYSLSSTLTLSKADYEKHKVYACEVTHQGLSSPVTKSFNRGEC
notes: Subclone of 2-9 with an IgG1 Fc carrying S267E/L328F; also called clone 2-9-1 IgG1 SELF; Clone 2-9 IgG1 SELF
Kd (Human CD137-his [3]): 6.55 nM
koff (Human CD137-his [3]): 0.00034 s⁻¹
kon (Human CD137-his [3]): 52000 M⁻¹ s⁻¹
Kd (Human CD137-his [4]): 11.1 nM
koff (Human CD137-his [4]): 0.0006 s⁻¹
kon (Human CD137-his [4]): 54100 M⁻¹ s⁻¹

B18: 2-9-2 IgG4 (antibody)
heavy: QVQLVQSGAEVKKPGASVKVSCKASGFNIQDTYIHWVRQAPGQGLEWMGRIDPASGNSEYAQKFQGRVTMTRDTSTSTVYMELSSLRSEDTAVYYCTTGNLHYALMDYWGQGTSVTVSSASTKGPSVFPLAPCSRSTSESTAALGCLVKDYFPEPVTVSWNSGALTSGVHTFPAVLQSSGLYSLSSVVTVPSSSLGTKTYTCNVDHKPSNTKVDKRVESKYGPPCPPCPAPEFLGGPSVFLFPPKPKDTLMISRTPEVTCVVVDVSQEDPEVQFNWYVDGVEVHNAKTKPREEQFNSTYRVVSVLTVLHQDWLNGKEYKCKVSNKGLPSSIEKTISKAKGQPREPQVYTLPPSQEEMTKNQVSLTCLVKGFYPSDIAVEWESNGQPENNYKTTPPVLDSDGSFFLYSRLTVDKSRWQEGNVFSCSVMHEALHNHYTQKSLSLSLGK
light: DIQMTQSPSSVSASVGDRVTITCKASQPINTYLSWYQQKPGKAPKLLIYRVNRKVDGVPSRFSGSGSGTDFTLTISSLQPEDFATYYCLQYLDFPYTFGGGTKLEIKRTVAAPSVFIFPPSDEQLKSGTASVVCLLNNFYPREAKVQWKVDNALQSGNSQESVTEQDSKDSTYSLSSTLTLSKADYEKHKVYACEVTHQGLSSPVTKSFNRGEC
notes: Subclone of 2-9; also called clone 2-9-2 IgG4 wt
Kd (Human CD137-his [4]): 12.9 nM
koff (Human CD137-his [4]): 0.000801 s⁻¹
kon (Human CD137-his [4]): 62200 M⁻¹ s⁻¹
